Results: paper doi:10.1101/2024.08.19.608718, “The structural basis for RNA slicing by human Argonaute2”

Target: HsAGO2 D669A (catalytically dead) (Homo sapiens, UniProt Q9UKV8 1-859, D669A)
Assay: cryo-EM (3.3 A); 1 mM Mg2+; one Mg modelled; Dissociation filter binding: 17.6 mM HEPES pH 7.4, 97.8 mM KOAc, 0.978 mM Mg(OAc)2, 5 mM DTT, BSA, yeast tRNA, 0.01% IGEPAL, 1.6% glycerol, 37 C; cryo-EM complex: 50 mM Tris pH 7.5, 150 mM NaCl, 1 mM MgCl2, 2% glycerol, 0.5 mM TCEP (target bound at 25 C in 10% glycerol)
Settings: protein: recombinant; tags: 3xFLAG-SUMOEu1, cleaved off by SENPEuB; label: biotin on target 3' end (click, diazo biotin azide); guide-target paired from g2 to g22; target overhangs 5' 3 nt and 3' 3 nt; g1 not paired

HsAGO2 D669A (catalytically dead), sequence (Q9UKV8 whole entry D669A): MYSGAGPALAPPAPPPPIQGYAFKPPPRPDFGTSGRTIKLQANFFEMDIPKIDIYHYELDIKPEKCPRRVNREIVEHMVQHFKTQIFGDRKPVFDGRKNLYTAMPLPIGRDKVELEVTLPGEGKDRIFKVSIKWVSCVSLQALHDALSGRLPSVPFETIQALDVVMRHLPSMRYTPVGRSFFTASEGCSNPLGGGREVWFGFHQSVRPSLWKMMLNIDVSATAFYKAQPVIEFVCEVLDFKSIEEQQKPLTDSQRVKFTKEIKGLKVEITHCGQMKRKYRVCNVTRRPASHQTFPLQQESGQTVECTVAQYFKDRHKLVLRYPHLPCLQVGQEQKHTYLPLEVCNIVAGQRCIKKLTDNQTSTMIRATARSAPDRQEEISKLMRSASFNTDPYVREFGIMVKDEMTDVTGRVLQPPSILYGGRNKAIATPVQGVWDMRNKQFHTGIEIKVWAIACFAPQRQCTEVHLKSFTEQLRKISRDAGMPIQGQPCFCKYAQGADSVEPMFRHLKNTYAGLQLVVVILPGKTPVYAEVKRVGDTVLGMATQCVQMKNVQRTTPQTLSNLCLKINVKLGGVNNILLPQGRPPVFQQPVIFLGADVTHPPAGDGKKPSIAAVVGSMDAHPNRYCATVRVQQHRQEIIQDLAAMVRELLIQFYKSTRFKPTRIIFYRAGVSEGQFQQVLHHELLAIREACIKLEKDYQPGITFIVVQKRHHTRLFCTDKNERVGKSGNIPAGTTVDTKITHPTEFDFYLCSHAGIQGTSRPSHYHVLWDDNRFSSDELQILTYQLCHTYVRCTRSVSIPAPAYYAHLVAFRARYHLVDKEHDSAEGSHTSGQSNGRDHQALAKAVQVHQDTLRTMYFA

B1: miR-7 guide (22 nt) / fully complementary target (dsRNA)
RNA 1: UGGAAGACUAGUGAUUUUGUUG
RNA 2: UUUCAACAAAAUCACUAGUCUUCCAAAU
modifications: guide 5'-phosphate; target nt 1-3 (U) and 26-27 (A) 2'-O-methyl; 3'-terminal nt is deoxyuridine with 5-octadiynyl
Question: Does B1 bind?
Answer: binds
